This assay addresses human CCR5 (human) (UniProt P51681). Put plainly: cell-based or functional assay.

Data on one molecule can be found in patent US20060078537A1.

Chain of human CCR5 (human) (P51681 whole entry): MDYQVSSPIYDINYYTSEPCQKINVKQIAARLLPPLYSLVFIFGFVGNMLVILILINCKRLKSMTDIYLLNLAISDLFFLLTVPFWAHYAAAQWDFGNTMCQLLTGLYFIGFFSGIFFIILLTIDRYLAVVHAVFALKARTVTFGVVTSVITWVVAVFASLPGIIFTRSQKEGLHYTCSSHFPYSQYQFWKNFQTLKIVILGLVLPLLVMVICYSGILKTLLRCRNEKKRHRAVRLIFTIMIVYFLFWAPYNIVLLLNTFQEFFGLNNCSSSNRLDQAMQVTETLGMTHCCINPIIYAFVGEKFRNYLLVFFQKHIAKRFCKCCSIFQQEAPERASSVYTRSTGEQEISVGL

B1: MC-1 anti-CCR5 monoclonal antibody (antibody, from another filing, V domains shown)
VH: QVQLQQPGAGRVRPGASVKLSCKASGYSFTSYWMNWVKQRPGQGLEWIGMIHPSDSETRLNQKFNDRATLTVDKYSSTAYIQLSSPTSEDSAVYYCARGEYYYGIFDYWGQGTTVTVSS
VL: DIQLTQSPASLSASVGETVTITCRASENIYSYLAWYQQKQGKSPQLLVYNAKTLTEGVPSRFSGSGSGTQFSLKINSLQPEDFGNYFCQHHYDTPRTFGGGTKLEIK
In turn, B1 displayed a decrease of cell surface CCR5 on CHO cells expressing CCR5 (FACS, 30 minutes at 37° C.) at 5 µg/ml MC-1 of 50%.
